Results on one molecule are retold here after paper PMC8101487 (Molecular Biology of the Cell, 2021).

The target in the test is T1, Frq1 (S. cerevisiae, UniProt Q06389 1-190).
T1 sequence (looked up): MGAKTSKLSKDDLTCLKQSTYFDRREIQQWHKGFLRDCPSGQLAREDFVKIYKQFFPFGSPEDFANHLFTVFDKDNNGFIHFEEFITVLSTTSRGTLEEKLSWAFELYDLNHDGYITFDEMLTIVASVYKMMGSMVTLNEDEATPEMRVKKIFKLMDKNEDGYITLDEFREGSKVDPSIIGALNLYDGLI
Kind of test: SEC.

B1: Pik1(121-174) peptide (peptide, UniProt P39104 121-174, looked up)
peptide: ASYGFQVARRVLNNLQTNLFNTSSGSDKNVKIHENVAPALVLSSMIMSAIAFPQ
Regarding B1, the binding result is listed as “binds”.
